Measured values as given in publication PMC9430723.

What was measured:
[1] = target: T1, AlkX (Rv3249c), TetR family regulator (Mycobacterium tuberculosis) (UniProt O05892); experiment: EMSA
T1 sequence: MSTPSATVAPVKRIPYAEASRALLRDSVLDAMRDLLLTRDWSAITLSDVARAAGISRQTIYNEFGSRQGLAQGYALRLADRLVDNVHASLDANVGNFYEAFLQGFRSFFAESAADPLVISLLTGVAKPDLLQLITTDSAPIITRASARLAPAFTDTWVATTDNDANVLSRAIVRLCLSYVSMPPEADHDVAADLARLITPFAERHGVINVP

[2] = target: T1, AlkX (Rv3249c), TetR family regulator (Mycobacterium tuberculosis); experiment: competition

Question: How did the binding [1] turn out when “TCGGCAAGCTCGAGAGAGCGCGACCCGGAGGTGTTGAACTAGCTTCGCCGCGTATTTACAAATTGCGTTATATGTCTAGACATAAGACGCAAACTGCTCTATTGTCAAATCCCAACGTGGTGTGGCTCATGAGGAGGTTTGGCATATGACCACGCAAATCGGCTCTGGTGGACCCGAAG (double strand) [rv3252c (alkB) promoter probe]” was run?
Answer: The binding was “binds”.

Question: How did the binding [2] turn out when “TCGGCAAGCTCGAGAGAGCGCGACCCGGAGGTGTTGAACTAGCTTCGCCGCGTATTTACAAATTGCGTTATATGTCTAGACATAAGACGCAAACTGCTCTATTGTCAAATCCCAACGTGGTGTGGCTCATGAGGAGGTTTGGCATATGACCACGCAAATCGGCTCTGGTGGACCCGAAG (double strand) [unlabeled (cold) rv3252c (alkB) promoter probe]” was run?
Answer: The binding was “binds”.

Question: “CGGCGATTGACTGTTCTACCGACTTCATGCGCCGTCGACCGGCCATGCACCCGTCCTCTCGCACTCGTTGTGACCGCACAGTACTGGGTACTCTGCGAGGATGACGGGTCGCGTAGGGAACCCGAAGGACCACGCCGTGGTGATCGGAGCTAGCATCGCCGGGTTGTGCGCCGCGCGGGTGCTCTCGGACTTCTACTCCA (double strand) [rv3253c promoter probe]” was tested. Which binding [1] did it give?
Answer: The binding was “no binding”.
